Test [1] deals with T1, human B7-H4 on cells (human, UniProt Q7Z7D3 25-282).
T1 sequence: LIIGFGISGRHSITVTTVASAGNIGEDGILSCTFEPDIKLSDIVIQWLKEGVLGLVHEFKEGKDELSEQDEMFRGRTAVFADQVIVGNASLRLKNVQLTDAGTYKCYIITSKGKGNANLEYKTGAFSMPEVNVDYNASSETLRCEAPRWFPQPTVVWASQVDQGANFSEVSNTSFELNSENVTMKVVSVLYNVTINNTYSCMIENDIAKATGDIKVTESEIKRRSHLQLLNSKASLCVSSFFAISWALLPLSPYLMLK
Briefly: cell-based or functional assay.

The target in test [2] is T2, recombinant human B7-H4 (tag format not stated) (human, UniProt Q7Z7D3 25-259).
T2 construct: also called huB7-H4; human B7-H4 antigen
T2 sequence: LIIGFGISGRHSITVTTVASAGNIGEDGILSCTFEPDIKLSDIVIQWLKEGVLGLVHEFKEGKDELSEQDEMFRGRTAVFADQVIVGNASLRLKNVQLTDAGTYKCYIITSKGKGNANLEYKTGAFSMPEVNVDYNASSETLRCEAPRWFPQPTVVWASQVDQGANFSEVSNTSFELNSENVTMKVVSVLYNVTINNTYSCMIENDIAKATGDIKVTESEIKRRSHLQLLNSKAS
Briefly: SPR, antibody capture.

Test [3] has as its target human FcRn (human, UniProt P55899 24-297; P61769 21-119). Briefly: SPR, steady state; steady state; human FcRn. In general terms: In SPR one partner is held on a chip, and binding of the other changes the refractive index at the surface.
In test [4] the target is huFcγRI (human, UniProt P12314 16-288). Briefly: SPR, equilibrium KD; equilibrium KD; huFcγRI.
Chain of huFcγRI (P12314 16-288 limits assumed): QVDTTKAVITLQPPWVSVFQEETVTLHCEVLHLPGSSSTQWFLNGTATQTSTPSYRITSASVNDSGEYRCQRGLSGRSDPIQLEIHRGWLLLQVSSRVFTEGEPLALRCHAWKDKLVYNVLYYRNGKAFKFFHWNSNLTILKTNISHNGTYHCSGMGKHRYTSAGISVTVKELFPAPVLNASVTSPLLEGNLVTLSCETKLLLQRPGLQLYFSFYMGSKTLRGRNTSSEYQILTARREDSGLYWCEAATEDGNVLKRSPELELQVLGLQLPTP
Test [5] has as its target T2, recombinant human B7-H4 (tag format not …). Briefly: DELFIA-ELISA on immobilized recombinant human B7-H4. In general terms: In an ELISA, binding on a coated surface is turned into a signal by an enzyme label.
Test [6] has as its target T1, human B7-H4 on cells. The experiment in a line: flow cytometry on HT29-huB7-H4 Clone 4 cells, MFI (geometric mean). Background: A flow cytometer gives signals particle by particle.
Test [7] has as its target T1, human B7-H4 on cells. The experiment in a line: flow cytometry on HT29-huB7-H4 Clone 26 cells, MFI (geometric mean).
The target in test [8] is T1, human B7-H4 on cells. Briefly: flow cytometry on MX-1 cells (endogenous human B7-H4), MFI (geometric mean).
For test [9], the target named is T1, human B7-H4 on cells. The experiment in a line: flow cytometry on MDA-MB-468 cells (endogenous human B7-H4), MFI (geometric mean).
Test [10] addresses T3, murine B7-H4 on cells (mouse, UniProt Q7TSP5 25-257).
T3 construct: whole, on cells; also called muB7-H4
T3 sequence (looked up): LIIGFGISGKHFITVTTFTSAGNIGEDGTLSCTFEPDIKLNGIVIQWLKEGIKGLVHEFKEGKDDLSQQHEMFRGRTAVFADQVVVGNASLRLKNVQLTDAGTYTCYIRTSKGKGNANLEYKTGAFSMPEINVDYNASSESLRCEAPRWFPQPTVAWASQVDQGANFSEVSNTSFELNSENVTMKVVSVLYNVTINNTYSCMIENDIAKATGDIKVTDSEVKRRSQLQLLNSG
The experiment in a line: flow cytometry on HEK293 JI TREX cells stably expressing murine B7-H4, MFI (geometric mean).

The target of test [11] is T4, cynomolgus monkey B7-H4 on cells (cynomolgus monkey, UniProt A0A2K5U6P5 25-282).
T4 construct: whole, on cells; On HEK 293 cells; also called cynoB7-H4
T4 sequence: T1 sequence with L53I, F242L, S252A
Briefly: flow cytometry on HEK293 JI TREX cells stably expressing cynomolgus monkey B7-H4, MFI (geometric mean).

Test [12] concerns the target T5, recombinant mouse B7-H4 (tag format not stated) (mouse, UniProt Q7TSP5 25-257, limits assumed).
T5 construct: FlagHis10 or FcHis6 in the commercial antibody ELISA; also called murine B7-H4 antigen
T5 sequence (looked up): T3 sequence (looked up)
The experiment in a line: SPR.

Test [13] has as its target T5, recombinant mouse B7-H4 (tag format not …). The experiment in a line: SPR. This is another data set of the same source.
The target in test [14] is T2, recombinant human B7-H4 (tag format not …). The experiment in a line: SPR, immobilized B7-H4.
The target of test [15] is T6, recombinant cynomolgus monkey B7-H4 (tag format not stated) (cynomolgus monkey, UniProt A0A2K5U6P5 25-259).
T6 construct: also called cyno B7-H4
T6 sequence: T2 sequence with L53I
The experiment in a line: SPR, immobilized B7-H4.

Test [16] has as its target T7, Human B7-H4 ECD-Flag-His10 (monomeric) (human, UniProt Q7Z7D3 25-259).
T7 construct: Minimally biotinylated for KinExA; also called hB7H4-ECD-Flag-His10; B7-H4-FLAG
T7 sequence: T2 sequence
The experiment in a line: KinExA 3200, Fab, N-curve analysis.

The target in test [17] is T7, Human B7-H4 ECD-Flag-His10 (monomeric). The experiment in a line: KinExA 3200, Fab at 5, 10 or 45 nM, 25 C, N-curve analysis.
Test [18] deals with T2, recombinant human B7-H4 (tag format not …). Briefly: ELISA, Maia format mAb (GLQ).
For test [19], the target named is T5, recombinant mouse B7-H4 (tag format not …). The experiment in a line: ELISA, Maia format mAb (GLQ).
Test [20] deals with T2, recombinant human B7-H4 (tag format not …). Briefly: ELISA, Maia format mAb (GLY).
Test [21] deals with T5, recombinant mouse B7-H4 (tag format not …). Briefly: ELISA, Maia format mAb (GLY).

Changes are numbered by the printed parent chain.

Chain of human FcRn (P55899 24-297 limits assumed, chain 1 of 2): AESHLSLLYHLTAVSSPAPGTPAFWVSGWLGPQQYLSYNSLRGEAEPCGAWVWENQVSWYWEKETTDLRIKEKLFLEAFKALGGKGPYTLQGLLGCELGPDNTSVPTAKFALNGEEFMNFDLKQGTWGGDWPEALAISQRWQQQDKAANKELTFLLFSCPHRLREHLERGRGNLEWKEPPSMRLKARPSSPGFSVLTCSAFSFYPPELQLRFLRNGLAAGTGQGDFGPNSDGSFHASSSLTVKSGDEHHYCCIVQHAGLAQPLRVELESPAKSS
Chain of human FcRn (P61769 21-119 limits assumed, chain 2 of 2): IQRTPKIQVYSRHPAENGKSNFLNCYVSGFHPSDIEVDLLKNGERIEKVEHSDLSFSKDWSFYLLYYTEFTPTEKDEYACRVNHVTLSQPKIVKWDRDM

B1: E02-GL-SG3932 (antibody, human IgG1, kappa)
heavy: not shown
light: DIQMTQSPSSLSASVGDRVTITCRASQDIRNDVGWYQQKPGKAPKRLIYAASRLQSGVPSRFSGSGSGTEFTLTISSLQPEDFATYYCLQHNSYPRTFGQGTKVEIKRTVAAPSVFIFPPSDEQLKSGTASVVCLLNNFYPREAKVQWKVDNALQSGNSQESVTEQDSKDSTYSLSSTLTLSKADYEKHKVYACEVTHQGLSSPVTKSFNRGEC
modifications: SG3932 on native cysteines (DAR about 8 for the whole antibody); SG3932 (mal-PEG8-val-ala linker with TOP1i warhead) on native cysteines through a thiosuccinimide linkage, about 8 drugs per antibody
notes: also called E02-INT-SG3932; B7-H4 targeting TOP1i-ADC; copies: 2 + 2
Usually Kd stands for the constant that tells how readily two partners part at equilibrium. As a reminder, the koff is the rate constant with which the complex falls apart. Usually kon stands for the second-order rate constant of association. One may read the EC50 as the midpoint of the concentration-response curve. What is called EC50 (read off the curve) is the concentration needed to bring the measured effect to its halfway point. B1: in test [1], the “IC50, cytotoxicity (CellTiter-Glo) on HT29-huB7-H4 Clone 26” value was 0.036 g/mL (as printed; probably µg/mL). Moreover, the “IC50, cytotoxicity (CellTiter-Glo) on MX-1” value in [1] came to 0.029 µg/mL. Besides, the “IC50, cytotoxicity (CellTiter-Glo, 6 days) on human B7-H4 transfected Ad293 cells” value in [1] came to 0.0533 µg/mL. Further, the Kd came out at 29.3 nM in [2], 4360 nM in test [3] and 4.35 nM in test [4]. Further, the koff in [2] came to 0.0028 s⁻¹. For the same molecule, in [2], the kon stood at 95500 M⁻¹ s⁻¹. Further, in [5], the EC50 stood at 1.71 nM. The “EC50 (read off the curve)” value in [6] was about 0.07 µg/mL; in test [7], about 0.1 µg/mL; in test [8] it was about 0.1 µg/mL; in test [9], about 0.08 µg/mL.

B2: E02-INT (antibody intermediate of E02-GL-SG3932) (antibody, human IgG1, kappa)
heavy: not shown
light: B1 light
notes: also called E02-GL antibody; antibody intermediate E02-INT
Regarding B2, the equilibrium dissociation constant (Kd) in test [2] came to 31.1 nM. For the same molecule, the koff in test [2] is 0.00292 s⁻¹. Besides, the kon in test [2] came to 93800 M⁻¹ s⁻¹. Besides, in [5], the EC50 was determined as 1.98 nM. Moreover, the “EC50 (read off the curve)” value in test [6] is about 0.05 µg/mL; in [7] it was about 0.07 µg/mL; in [8] it was about 0.1 µg/mL; in test [9], about 0.08 µg/mL; in [10] it was about 0.2 µg/mL; in test [11], about 0.4 µg/mL.

B3: E02_GL Fab (Fab, V domains shown)
VH: QVQLQQWGAGLLKPSETLSLACTVYGGSFSGYYWNWIRQPPGKGLEWIGEINHSGSTSYNPSLKSRVTISVDTSKNQFSLKLSSVTAADTAVYYCARVLYNWNVDSWGQGTLVTVSS
VL: DIQMTQSPSSLSASVGDRVTITCRASQDIRNDVGWYQQKPGKAPKRLIYAASRLQSGVPSRFSGSGSGTEFTLTISSLQPEDFATYYCLQHNSYPRTFGQGTKVEIK
notes: Fab of E02-GL; also called EO2_GL Fab; E02-INT Fab
Consider B3, for which the “fold lower affinity than for human B7-H4 antigen” value in test [12] is about 100 fold. In addition, the Kd in [13] is 405 nM; in [14], 3.7 nM; in [15] it was 3.94 nM; in [16], 1.21 nM; in test [17], 1.2 nM.

B4: E02-GLQ-maia (antibody, human IgG1, kappa, V domains shown)
VH: B3 VH with N52Q
VL: DIQMTQSPSSLSASVGDRVTITCRASQDIRNDVGWYQQKPGKAPKRLIYAASRLQSGVPSRFSGSGSGTEFTLTISSLQPEDFATYYCLQHNSYPRTFGQGTKVEIKR
notes: Germlined with a Q substitution, Maia format
On to B4, for which the binding result in test [18] and in test [19] was “binds” each time.

B5: E02-GLY-maia (antibody, human IgG1, kappa, V domains shown)
VH: B3 VH with N52Y
VL: B4 VL
notes: Germlined with a Y substitution, Maia format
With B5, the binding result in [20] and in test [21] was “binds” in each case.

The values are drawn from US20240239894A1 (AstraZeneca / MedImmune, published 2024).
